Assay results as given in patent US20200171068A1, “COMPOSITIONS COMPRISING APTAMERS AND NUCLEIC ACID PAYLOADS AND METHODS OF USING THE SAME” (Children's National Medical Center, priority 2017, published 2020).

Experiments:
[1] = Plasma levels and in vivo imaging of miR-26a chimera in TUBO tumor-bearing BALB/c mice; parameters: species or system mouse; conditions: 670 pmol single intravenous dose, qPCR
Method: FIG. 8A is a graph showing the pharmacokinetics of plasma levels of miR-26a chimera and the single dose administration in BALB/c mice bearing mouse TUBO breast cancer cell line. miR-26a chimera (670 pmol/20 g) was injected intravenously. Blood samples were collected at the indicated time points. The concentrations of miR-26a were determined by quantitative PCR using standard curve generated with dose-titrated miR-26a chimera. Data were pooled from three experiments, involving a total of 3 mice. FIG. 8B is a series of pictures showing in vivo imaging of miR-26a chimera conjugated with AF647 dye in BALB/c mice bearing tumor with TUBO cell line. A single dose of miR-26a chimera (670 pmol/20 g) was intravenously injected and followed by serial fluorescence imaging at the indicated time points by IVIS spectrum (Caliper LifeSciences, Waltham, Mass.). Data shown are series images from one experiment. Similar data were obtained from another experiment.

[2] = system: TUBO cells; assay: Binding to TUBO cells by flow cytometry; parameters: species or system mouse; conditions: biotinylated
Method: DNA sequences for anti-human KIT aptamer (21) and mouse c-Kit aptamers (22) conjugated with biotin at 3′ were functionalized by short denaturation-renaturation step (95° C. 10 min, 5 min snap-cooling on ice). These DNA sequences were 5′-[…] […]-3′ (SEQ ID NO: 2) for human KIT, 5′-[…]-3′ (SEQ ID NO:3) for mouse c-Kit. These activated aptamers were used for binding assay to the cell lines by flow cytometry. For chimera preparation, human KIT-aptamer or mouse c-Kit-aptamer miR-26a chimera was assembled by three compartments of DNA/RNA hybrid sequences. The sequences were 5′-[…] […]/C3 (SEQ ID NO:4) spacer/CCUAUUCUGG-3′(SEQ ID NO:5) for human KIT aptamer+the part of passenger sequence for miR-26a-5p, 5′-[…]/C3 (SEQ ID NO:6) spacer/CCUAUUCUGG-3′ (SEQ ID NO:7) for mouse cKit aptamer+the part of passenger sequence for miR-26a-5p, 5′-GUUACUUGCACG/TEG (triethylene glycol)-Cholesterol-3′ (SEQ ID NO:8) for the part of sequence for miR-26a-5p+cholesterol, and 5′-[…]-3′ (SEQ ID NO:9) for guide sequence for miR-26a-5p (RNA sequences were represented as italic). The guide sequence for scramble control was […] (SEQ ID NO:10). To protect the oligonucleotide sequences from nuclease degradation, phosphorothioate bonds were introduced between the last 3 nucleotides at the 5′-end of DNA aptamers. The RNA sequences were modified with 2′-fluoro-uridines. […]

B1: miR-26a chimera: mouse c-Kit DNA aptamer-C3-passenger RNA, passenger RNA-TEG-cholesterol and miR-26a-5p guide strand annealed (SEQ ID NO:6/7, 8, 9) (nucleic acid)
chain 1: GCTCAACGCGGGACGGCTCTCCCATTGAC
chain 2: CCUAUUCUGG
chain 3: GUUACUUGCACG
guide: UUCAAGUAAUCCAGGAUAGGCU
modifications: chemistry not fully specified
time miR-26a chimera could be detected in the blood after injection [1]: ≤ 8 h
binding to TUBO cells [2]: nearly identical levels comparable to an anti-c-Kit antibody
